Assay results reported in US20210054049A1 (MERUS N V, published 2021).

Biological target: c-MET (UniProt P08581 25-932)
Assay: ELISA on c-MET coated plates

Chain of c-MET (P08581 25-932 limits assumed): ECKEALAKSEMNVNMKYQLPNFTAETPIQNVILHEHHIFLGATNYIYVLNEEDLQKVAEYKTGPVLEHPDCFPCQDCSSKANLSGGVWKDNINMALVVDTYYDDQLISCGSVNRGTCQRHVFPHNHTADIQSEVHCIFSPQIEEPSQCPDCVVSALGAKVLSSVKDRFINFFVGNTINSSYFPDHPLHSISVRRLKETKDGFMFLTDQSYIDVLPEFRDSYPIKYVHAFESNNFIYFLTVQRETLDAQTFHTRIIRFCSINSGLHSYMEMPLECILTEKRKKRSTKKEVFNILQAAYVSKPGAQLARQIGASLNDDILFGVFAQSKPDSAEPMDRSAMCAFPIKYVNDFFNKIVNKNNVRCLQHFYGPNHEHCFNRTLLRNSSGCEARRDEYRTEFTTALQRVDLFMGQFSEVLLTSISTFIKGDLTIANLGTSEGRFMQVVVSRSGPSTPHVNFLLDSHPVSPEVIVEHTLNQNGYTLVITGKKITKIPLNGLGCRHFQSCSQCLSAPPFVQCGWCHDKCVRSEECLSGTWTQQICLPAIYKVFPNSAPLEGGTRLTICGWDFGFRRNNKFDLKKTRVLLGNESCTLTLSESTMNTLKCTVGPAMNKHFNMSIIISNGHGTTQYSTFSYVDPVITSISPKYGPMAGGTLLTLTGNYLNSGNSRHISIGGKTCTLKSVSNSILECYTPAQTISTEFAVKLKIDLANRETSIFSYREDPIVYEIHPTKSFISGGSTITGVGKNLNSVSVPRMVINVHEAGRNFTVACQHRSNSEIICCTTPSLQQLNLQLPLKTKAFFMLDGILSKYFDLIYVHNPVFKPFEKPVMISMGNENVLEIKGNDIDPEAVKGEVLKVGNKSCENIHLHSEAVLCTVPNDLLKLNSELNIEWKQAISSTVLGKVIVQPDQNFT

Row | Binder | binding result
1 | PB27538p43 (bispecific antibody, also called PB27538p44; PB27538p33) heavy (part 1 of 2) 1: EVQLVETGGGVVQPGRSLRLSCAASGFTFSQYAMHWVRQAPGKGLEWVAIISHDERNKYYVDSGMGRFTISRDNSKNTLFLQMNSLRSEDTAVYYCARDMRKGGYYYGFDVWGQGTTVTVSSASTKGPSVFPLAPSSKSTSGGTAALGCLVKDYFPEPVTVSWNSGALTSGVHTFPAVLQSSGLYSLSSVVTVPSSSLGTQTYICNVNHKPSNTKVDK heavy (part 2 of 2) 1: not shown heavy (part 1 of 2) 2: not shown heavy (part 2 of 2) 2: not shown light: not shown | binds
2 | PB27538p52 (bispecific antibody, also called PB27538p42; MG1516C3209 x MG3462C3221) heavy (part 1 of 2) 1: EVQLVETGGGVVQPGRSLRLSCAASGFTFSQYAMHWVRQAPGKGLEWVAIISHDERNKYYVDSGMGRFTISRDNSKNTLFLQMNSLRSEDTAVYYCARDMRKGGYYYGFDVWGQGTTVTVSSASTKGPSVFPLAPSSKSTSGGTAALGCLVKDYFPEPVTVSWNSGALTSGVHTFPAVLQSSGLYSLSSVVTVPSSSLGTQTYICNVNHKPSNTKVDK heavy (part 2 of 2) 1: not shown heavy (part 1 of 2) 2: not shown heavy (part 2 of 2) 2: not shown light: not shown | binds
3 | PB27538p50 (bispecific antibody, also called PB27538p40; MG1516C3209 x MG3462C3218) heavy (part 1 of 2) 1: EVQLVETGGGVVQPGRSLRLSCAASGFTFSQYAMHWVRQAPGKGLEWVAIISHDERNKYYVDSGMGRFTISRDNSKNTLFLQMNSLRSEDTAVYYCARDMRKGGYYYGFDVWGQGTTVTVSSASTKGPSVFPLAPSSKSTSGGTAALGCLVKDYFPEPVTVSWNSGALTSGVHTFPAVLQSSGLYSLSSVVTVPSSSLGTQTYICNVNHKPSNTKVDK heavy (part 2 of 2) 1: not shown heavy (part 1 of 2) 2: not shown heavy (part 2 of 2) 2: not shown light: not shown | binds
4 | PB27538p45 (bispecific antibody, also called PB27538p35; MG1516C3210 x MG3462C3215) heavy (part 1 of 2) 1: EVQLVETGGGVVQPGRSLRLSCAASGFTFSQYAMHWVRQAPGKGLEWVAIISHDERNKYYVDSGMGRFTISRDNSKNTLFLQMNSLRSEDTAVYYCARDMRKGGYYYGFDVWGQGTTVTVSSASTKGPSVFPLAPSSKSTSGGTAALGCLVKDYFPEPVTVSWNSGALTSGVHTFPAVLQSSGLYSLSSVVTVPSSSLGTQTYICNVNHKPSNTKVDK heavy (part 2 of 2) 1: not shown heavy (part 1 of 2) 2: not shown heavy (part 2 of 2) 2: not shown light: not shown | binds
5 | PB27538p48 (bispecific antibody, also called PB27538p38; MG1516C3209 x MG3462C3216) heavy (part 1 of 2) 1: EVQLVETGGGVVQPGRSLRLSCAASGFTFSQYAMHWVRQAPGKGLEWVAIISHDERNKYYVDSGMGRFTISRDNSKNTLFLQMNSLRSEDTAVYYCARDMRKGGYYYGFDVWGQGTTVTVSSASTKGPSVFPLAPSSKSTSGGTAALGCLVKDYFPEPVTVSWNSGALTSGVHTFPAVLQSSGLYSLSSVVTVPSSSLGTQTYICNVNHKPSNTKVDK heavy (part 2 of 2) 1: not shown heavy (part 1 of 2) 2: not shown heavy (part 2 of 2) 2: not shown light: not shown | binds
6 | PB27538p49 (bispecific antibody, also called PB27538p39; MG1516C3209 x MG3462C3217) heavy (part 1 of 2) 1: EVQLVETGGGVVQPGRSLRLSCAASGFTFSQYAMHWVRQAPGKGLEWVAIISHDERNKYYVDSGMGRFTISRDNSKNTLFLQMNSLRSEDTAVYYCARDMRKGGYYYGFDVWGQGTTVTVSSASTKGPSVFPLAPSSKSTSGGTAALGCLVKDYFPEPVTVSWNSGALTSGVHTFPAVLQSSGLYSLSSVVTVPSSSLGTQTYICNVNHKPSNTKVDK heavy (part 2 of 2) 1: not shown heavy (part 1 of 2) 2: not shown heavy (part 2 of 2) 2: not shown light: not shown | binds
7 | PB27538p51 (bispecific antibody, also called PB27538p41; MG1516C3209 x MG3462C3219) heavy (part 1 of 2) 1: EVQLVETGGGVVQPGRSLRLSCAASGFTFSQYAMHWVRQAPGKGLEWVAIISHDERNKYYVDSGMGRFTISRDNSKNTLFLQMNSLRSEDTAVYYCARDMRKGGYYYGFDVWGQGTTVTVSSASTKGPSVFPLAPSSKSTSGGTAALGCLVKDYFPEPVTVSWNSGALTSGVHTFPAVLQSSGLYSLSSVVTVPSSSLGTQTYICNVNHKPSNTKVDK heavy (part 2 of 2) 1: not shown heavy (part 1 of 2) 2: not shown heavy (part 2 of 2) 2: not shown light: not shown | binds
8 | PB27538p46 (bispecific antibody, also called PB27538p36; MG1516C3211 x MG3462C3215) heavy (part 1 of 2) 1: EVQLVETGGGVVQPGRSLRLSCAASGFTFSQYAMHWVRQAPGKGLEWVAIISHDERNKYYVDSGMGRFTISRDNSKNTLFLQMNSLRSEDTAVYYCARDMRKGGYYYGFDVWGQGTTVTVSSASTKGPSVFPLAPSSKSTSGGTAALGCLVKDYFPEPVTVSWNSGALTSGVHTFPAVLQSSGLYSLSSVVTVPSSSLGTQTYICNVNHKPSNTKVDK heavy (part 2 of 2) 1: not shown heavy (part 1 of 2) 2: not shown heavy (part 2 of 2) 2: not shown light: not shown | binds
